# B1: POx of SEQ ID NO:4: sorbitol oxidase of Streptomyces lividans, gene identified from S. coelicolor SCO6147, expressed intracellularly in S. lividans g3s3 (protein)
# chain: MGDITVTNWAGNITYTAKELLRPHSLDALRALVADSARVRVLGSGHSFNEIAEPGDGGVLLSLAGLPSVVDVDTAARTVRVGGGVRYAELARVVHARGLALPNMASLPHISVAGSVATGTHGSGVGNGSLASVVREVELVTADGSTVVIARGDERFGGAVTSLGALGVVTSLTLDLEPAYEMEQHVFTELPLAGLDPATFETVMAAAYSVSLFTDWRAPGFRQVWLKRRTDRPLDGFPYAAPAAEKMHPVPGMPAVNCTEQFGVPGPWHERLPHFRAEFTPSSGAELQSEYLMPREHALAALHAMDAIRETLAPVLQTCEIRTVAADAQWLSPAYGRDTVAAHFTWVEDTAAVLPVVRRLEEALVPFAARPHWGKVFTVPAGELRALYPRLADFGALAGALDPAGKFTNAFVRGVLAG
# modifications: Streptomyces lividans
# notes: sorbitol oxidase of Streptomyces lividans, gene identified from S. coelicolor SCO6147, expressed intracellularly in S. lividans g3s3
# B2: sorbitol oxidase from Streptomyces species H-7775: sorbitol oxidase of Streptomyces species H-7775, Genbank AB000519, 420 amino acids (protein)
# chain: MTPAEKNWAGNITFGAKRLCVPRSVRELRETVAASGAVRPLGTRHSFNTVADTSGDHVSLAGLPRVVDIDVPGRAVSLSAGLRFGEFAAELHARGLALANLGSLPHISVAGAVATGTHGSGVGNRSLAGAVRALSLVTADGETRTLRRTDEDFAGAVVSLGALGVVTSLELDLVPAFEVRQWVYEDLPEATLAARFDEVMSAAYSVSVFTDWRPGPVGQVWLKQRVGDEGARSVMPAEWLGARLADGPRHPVPGMPAGNCTAQQGVPGPWHERLPHFRMEFTPSNGDELQSEYFVARADAVAAYEALARLRDRIAPVLQVSELRTVAADDLWLSPAHGRDSVAFHFTWVPDAAAVAPVAGAIEEALAPFGARPHWGKVFSTAPEVLRTLYPRYADFEELVGRHDPEGTFRNAFLDRYFRR
# modifications: Streptomyces H-7775
# notes: sorbitol oxidase of Streptomyces species H-7775, Genbank AB000519, 420 amino acids
# B3: sorbitol oxidase: partially purified sorbitol oxidase or fermentation broth cell lysate (108 hr EFT) used for biobleaching (protein)
# chain: B2 chain
# modifications: Streptomyces H-7775
# notes: partially purified sorbitol oxidase or fermentation broth cell lysate (108 hr EFT) used for biobleaching
# Tests used:
# [1] = Substrate range study: SCO6147 SOx activity on D-sorbitol versus D-xylitol; assay type: biochemical, Streptomyces lividans; conditions: SOx transformed in S. lividans; substrates 50 mM, pH 7.0
# Description: Sorbitol oxidase obtained using the methods described in Example 1, was tested for finding its activity with various polyol substrates. All substrates used in the assay were 50 mM in 10 mM phosphate buffer pH 7.0. The relative activity using sorbitol as (++++++=100%) is shown below in Table 3.
# [2] = cited from earlier work
# [3] = Stability and bleaching performance of SOx in HDL laundry wash conditions
# Description: In this Example, methods to determine the stability and bleaching performance of SOx (produced as described above) in AATCC liquid detergent laundry wash conditions are described. In these experiments, AATCC standard detergent (American Association of Textile Chemists and Colorists Heavy Duty Liquid Detergent Version 2003 without brightener; key components include linear alkane sulfonate, alcohol ethoxylate, propanediol, citric acid, fatty acid, castic soda and water; Testfabrics) was used.
# Three bleachable cotton swatches with juice (STC CFT CS-15), wine (STC CFT CS-3), and tea (STC CFT BC-3) were used. The swatches were cut into 15 mm circles with a textile punch (Model B equipped with a ⅝″ die cutter; Model 93046; NAEF).
# Single swatch disks were placed into each well of a 24-well microplate (Costar 3526). One (1) ml of washing solution pH 8, containing per liter, 1.5 ml AATCC HDL detergent, 75-100 mM sorbitol, 6 gpg hardness (diluted from stock 15000 gpg hardness solution containing 1.735 M calcium chloride and 0.67 M magnesium chloride), and 0.05% TAED (tetraacetylethylenediamine, Fluka) was added to each well. Five to fifty (5-50 ul) microliters of partially purified sorbitol oxidase or sorbitol oxidase obtain from a late fermentation run (108 hr EFT “effective fermentation time”) produced as described in Examples 1 and 2, were added with a positive displacement pipette to 3-8 wells in one column. The control wells contained no enzyme. The microplate was covered with a plastic lid and aluminum foil and incubated at 37° C. with 100 rpm gentle rotation for 14 hr. […]
# One hundred microliters (100 ul) of 0.1 mM sodium carbonate were added to each well to elevate the pH to 10. […] The disks were inspected visually and then analyzed with a Reflectometer CR-200 (Minolta) calibrated on a standard white tile. The average L values were calculated as was the percent soil release (% SR=100%×(Final reflectance-Initial reflectance)/(Reflectance of a white standard-Initial reflectance). Graphs showing the results of these experiments are provided in FIGS. 5-8.
molecule,measurement,setting,value
B1,activity on D-sorbitol relative to D-xylitol,[1],2.1 times
B2,pH range in which enzyme is stable,[2]; 24 hours at 30° C.,7.5-10 pH
same,optimum temperature,[2]; at pH 7.5,50 °C
B3,stability in typical liquid detergent system,"[3]; AATCC HDL detergent, pH 8, 37° C., 14 hr",stable
same,hydrogen peroxide production in detergent,[3]; in presence of sorbitol mixed with detergent and atmospheric oxygen,able to produce effective concentration of hydrogen peroxide
same,bleaching of colored stains,"[3]; with bleach booster TAED, blueberry, tea and wine stains, FIGS. 5-8",able to help bleach

# From patent US7919295B2, “Polyol oxidases” (Danisco US Inc., priority 2006, dated 2011)
